Reference: PMC11098746 (2024)

Experiments:
Assay in all cases: AVEXIS screen signal:noise (double-corrected)
ADP269 = biological target: T1, ADP269
T1 chain: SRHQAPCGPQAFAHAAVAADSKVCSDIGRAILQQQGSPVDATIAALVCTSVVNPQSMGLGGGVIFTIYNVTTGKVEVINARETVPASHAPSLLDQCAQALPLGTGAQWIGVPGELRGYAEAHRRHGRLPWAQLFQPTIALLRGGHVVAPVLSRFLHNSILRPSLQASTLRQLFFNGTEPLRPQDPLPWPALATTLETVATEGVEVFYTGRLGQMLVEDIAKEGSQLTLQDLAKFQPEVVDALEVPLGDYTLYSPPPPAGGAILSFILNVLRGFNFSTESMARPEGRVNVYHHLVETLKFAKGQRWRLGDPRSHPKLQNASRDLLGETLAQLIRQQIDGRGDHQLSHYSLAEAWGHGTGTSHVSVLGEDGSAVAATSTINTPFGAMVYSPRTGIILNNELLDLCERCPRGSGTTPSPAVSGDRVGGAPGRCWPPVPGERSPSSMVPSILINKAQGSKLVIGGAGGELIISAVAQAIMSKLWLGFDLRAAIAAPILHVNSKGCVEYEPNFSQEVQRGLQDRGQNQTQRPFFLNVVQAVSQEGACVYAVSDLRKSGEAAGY

ADP261 = biological target: T2, ADP261
T2 chain: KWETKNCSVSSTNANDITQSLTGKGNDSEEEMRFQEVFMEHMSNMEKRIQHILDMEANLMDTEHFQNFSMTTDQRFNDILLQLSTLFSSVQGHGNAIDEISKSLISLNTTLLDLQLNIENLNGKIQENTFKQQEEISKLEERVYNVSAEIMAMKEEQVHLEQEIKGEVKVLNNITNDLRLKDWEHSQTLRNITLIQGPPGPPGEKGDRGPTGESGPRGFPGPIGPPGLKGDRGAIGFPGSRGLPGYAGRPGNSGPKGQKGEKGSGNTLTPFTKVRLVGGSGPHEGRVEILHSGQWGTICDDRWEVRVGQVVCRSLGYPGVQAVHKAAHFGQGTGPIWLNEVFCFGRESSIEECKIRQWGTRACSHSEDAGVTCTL

ADP096 = biological target: T3, ADP096
T3 chain: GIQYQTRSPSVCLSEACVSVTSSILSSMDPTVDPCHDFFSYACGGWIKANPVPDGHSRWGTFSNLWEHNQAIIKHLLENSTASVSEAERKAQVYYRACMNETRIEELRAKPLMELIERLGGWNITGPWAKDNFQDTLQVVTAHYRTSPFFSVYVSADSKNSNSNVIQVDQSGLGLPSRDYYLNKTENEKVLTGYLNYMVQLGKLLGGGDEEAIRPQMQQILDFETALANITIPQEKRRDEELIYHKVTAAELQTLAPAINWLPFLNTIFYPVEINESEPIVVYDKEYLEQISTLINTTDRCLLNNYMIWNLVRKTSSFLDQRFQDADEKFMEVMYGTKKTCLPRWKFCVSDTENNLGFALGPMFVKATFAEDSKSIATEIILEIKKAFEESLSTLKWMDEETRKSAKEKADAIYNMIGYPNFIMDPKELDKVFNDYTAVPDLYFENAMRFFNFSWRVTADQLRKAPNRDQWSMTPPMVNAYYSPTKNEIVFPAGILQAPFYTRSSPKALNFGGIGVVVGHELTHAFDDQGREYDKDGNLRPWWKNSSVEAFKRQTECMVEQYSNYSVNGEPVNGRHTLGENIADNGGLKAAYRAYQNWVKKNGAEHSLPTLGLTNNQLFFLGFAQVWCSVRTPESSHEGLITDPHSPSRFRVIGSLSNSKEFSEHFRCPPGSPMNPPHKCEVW

ADP279 = biological target: T4, ADP279
T4 chain: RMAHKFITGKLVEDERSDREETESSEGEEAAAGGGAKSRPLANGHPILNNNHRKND

ADP264 = biological target: T5, ADP264
T5 chain: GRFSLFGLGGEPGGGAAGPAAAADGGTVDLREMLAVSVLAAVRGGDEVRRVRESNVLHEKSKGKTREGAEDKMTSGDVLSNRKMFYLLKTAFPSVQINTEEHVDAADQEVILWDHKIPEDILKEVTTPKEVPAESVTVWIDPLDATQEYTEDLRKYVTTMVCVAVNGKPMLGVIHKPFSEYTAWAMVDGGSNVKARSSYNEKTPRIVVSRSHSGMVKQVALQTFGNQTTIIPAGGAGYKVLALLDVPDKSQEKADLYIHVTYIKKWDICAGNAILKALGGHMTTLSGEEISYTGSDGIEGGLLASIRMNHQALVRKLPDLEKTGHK

ADP293 = biological target: T6, ADP293
T6 chain: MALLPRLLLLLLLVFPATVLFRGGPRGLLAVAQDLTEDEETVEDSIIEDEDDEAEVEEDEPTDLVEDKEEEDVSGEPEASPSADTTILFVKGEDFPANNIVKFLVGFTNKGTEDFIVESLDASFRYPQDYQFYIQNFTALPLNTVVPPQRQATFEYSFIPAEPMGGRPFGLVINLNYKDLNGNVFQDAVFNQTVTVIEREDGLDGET

B1: ADP237 (protein)
chain: TKKKVSVSEINFDSAVDDVQWCGNNHMTVLVKTVKGRLYRSSDGGKIWTNIAGNLADKENNKADPSSNHMNEMTTVDLIMVNSVNKNIVLIIGNQKNHYISEDSGETFRLLNYQNKINFWQFHSTKTHWALVSSWTEACYSNDDNSGECMQTLSLTKDLGRTFQLIDIYVVQFNWGDKESHLEDTIYYTRHKNRNGHQQRFSGWSKDVDFVATHNFGKSVDVLVKQGNKFLISNGYIFVAKLNDVIKQTVNMMVSTDGGKTFNKANLPENIHEKSYTVLDTSEGSIMLHVNHGTSSEKINTGNVYISDASGLNYALSLPNNIRTSSGECEFDRVLSLDGVYIANFLDVNNEIKDEDLRFQNFKSAIEEDIAPFETNTEKRKKQYNKGKNEDAVRTVISFNKGGEWSYLKAPKVDSRGNKYECGDNCYLHLHGITNYHQYAPFYSIENAVGIIMGTGNVGSHLRYESDEVNTFLSRDGGVTWIEAHKGPYIYEYGDYGGLIVMADDLRKTNQIVFSWNEGQSWFDFELGQFSIDVDNIVAEPNSASVEFLVYGTRNDVGVLYHLDFNALGQPLCKGLWAADSVSSDYETWSPTSGNFNDKCILGRKITYTRRKQTSECFNGKDLKRTVDKKPCECTPEDYECETGFTRKIGSYECKPNDPTLTIEGCTSSSYFYANAYRKVPGDICVNGWVPEKVPVPCPSYAPFNKAAK
modifications: bait human Fc-tagged dimer; N-glycosylation sequons mutated in Plasmodium baits
B1 was tested, and the binding score (ADP269) was 10.4, the binding score (ADP261) was 19.5 and the binding score (ADP096) was 16.2. The binding score (ADP279) was 12.8, the binding score (ADP264) was 9.43 and the binding score (ADP293) was 11.1.
